Experiment: yeast display, Sf9 membrane polyspecificity reagent, FACS + sequencing; frameworks hold sequencing errors
In short: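 A synthetic nanobody library was expressed on Saccharomyces cerevisiae BJ5465 by galactose induction for 36–48 hours. The library was stained for 1 hour at 4 °C with 10% biotinylated, detergent-solubilized Sf9 membrane reagent and enriched with streptavidin microbeads before FACS. Low and high (top ~1%) gates were set on anti-HA fluorescence for expression and streptavidin fluorescence for reagent binding, and each polyreactivity label reflects the gate of origin.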

QVQLVESGGGLVQAGGSLRLSCAASGFIFGAYSMGWYRQAPGKERELVADITQNSGSTYYADSVKGRFTISRDNAKNTVYLQMNSLKPEDTAVYYCNAPPGTFQWQGHSDYWGQGTQVTVSS
polyreactivity (PSR sort gate): low polyreactivity

QVQLVESGGGLVQAGGSLRLSCAASGFIFGDYAMGWYRQAPGKERELVAAINYSGGSTYYADSVKGRFTISRDNAKNTGYLQMNSLKPEDTAVYYCAALIYGLVGWGQGTQVTVSS
polyreactivity (PSR sort gate): low polyreactivity

QVQLVESGGGLVQAGGSLRLSCAASGFIFGFYAMGWYIQAPGKERELVAAISGGGGRTNYADSVKGRFTISRDYAKNTVYLQMNSLNPEDTAVYYCAATPGRRRYRYYYWGQGTQVTVSS
polyreactivity (PSR sort gate): high polyreactivity

QVQLVESGGGLVQAGGSLRLSCAASGFIFGFYAMGWYRQAPGKERELVAAISWSGGSTYYADSVKGRFTISRDNAKNTVYLQMNSLKPEDTAGYYCAAYFYYLDDAVTYDYWGQGTQVTVSS
polyreactivity (PSR sort gate): low polyreactivity

QVQLVESGGGLVQAGGSLRLSCAASGFIFGGYAMGWYRQAPGKEREFVAAIRQRGGSTYYADSVKGRFTISRDNAKNTVYLQMNSLKPEDTAVYFCAATVRAVQASVRYGYWGQGTQVTVSS
polyreactivity (PSR sort gate): high polyreactivity

QVQLVESGGGLVQAGGSLRLSCAASGFIFGGYAMGWYRQAPGKERELVAAISSSGGSTYYADSVKGRFTISRDNAKNTVYLQMNSLKPEDTAVYYCAKVGWSRRYYYWGQGTQVTVSS
polyreactivity (PSR sort gate): high polyreactivity

QVQLVESGGGLVQAGGSLRLSCAASGFIFGGYAMGWYRQAPGKERELVAAITWSGGNTYYADSVKGRFTISRDNAKNTVYLQMNSLKPEDTAVYYCAADYWTKYGYWGQGTQVTVSS
polyreactivity (PSR sort gate): low polyreactivity

QVQLVESGGGLVQAGGSLRLSCAASGFIFGKNDMGWYRQAPGKERELVAAITIGGSTNYADSVKGRFTISRDNAKNTVYLQMNSLTPEDTAVYYCGADATSLYNYWGLGTQVTVSS
polyreactivity (PSR sort gate): low polyreactivity

QVQLVESGGGLVQAGGSLRLSCAASGFIFGLYAMGWYRQAPGKEREFVAAISWSGGSTYYADSVKGRFTISRDNAKNTVYLQMNSLKPEDTAVYYCAREYHGDSRRYDYWGQGTQVTVSS
polyreactivity (PSR sort gate): high polyreactivity

QVQLVESGGGLVQAGGSLRLSCAASGFIFGNYAMGWYRQAAGNERELVAAISQRGGTTYYADSVKGRFTISRDNAKNTVYLQMNSLKPEDTAVYYCKAYYIGYYVDYEYWGQGTQVTVSS
polyreactivity (PSR sort gate): high polyreactivity

QVQLVESGGGLVQAGGSLRLSCAASGFIFGPYAMGWYRQAPGKERELVAAISRRGGSTYYADSVKGRFTISRDNAKNTVYLHMNSLKPEDTAVYYCATAGWGEAEGGYWGQGTQVTVSS
polyreactivity (PSR sort gate): high polyreactivity

QVQLVESGGGLVQAGGSLRLSCAASGFIFGRNTMGWYIQAPGKERELVAAITSGGSTNYADSVKGRFTISRDNAKNTVYLQMNSLKPEDTAVYYCAAEVSTYWTLYDYWGQGTQVTVSS
polyreactivity (PSR sort gate): high polyreactivity

QVQLVESGGGLVQAGGSLRLSCAASGFIFGRYAMGWYRQAPGKERELVAAISRSGARTYYADSVKGRFTISRDNAKNTVYLQMNSLKPEDTAVYYCARYQPRVSFDYWGQGTQVTVSS
polyreactivity (PSR sort gate): high polyreactivity

QVQLVESGGGLVQAGGSLRLSCAASGFIFGSNAMGWYRQAPGQERELVAAIDSSGGRTNYADSVKGRFTISRDNAKNTVYLQMNSLKPEDTAVYYCNVYRWSQLFEYDYWGQGTQVTVSS
polyreactivity (PSR sort gate): high polyreactivity

QVQLVESGGGLVQAGGSLRLSCAASGFIFGSNVMGWYRQAPGKERELVAAISRSGGSTYYADSVKGRFTISRDNAKNTVYLQMNSLKPEDTAVYYCNKLAVGRSRTGDYWGQGTQVTVSS
polyreactivity (PSR sort gate): high polyreactivity

QVQLVESGGGLVQAGGSLRLSCAASGFIFGSYAMGWYRQAPGKERELVAAITSDGNTDYADSVKGRFTISRDNAKNTVYLQMNSLKPEDTAVYYCATDWVDHYDYWGQGTQVTVSS
polyreactivity (PSR sort gate): low polyreactivity

QVQLVESGGGLVQAGGSLRLSCAASGFIFGSYAMGWYRQAPGNERELVAAISDSGDSTYYADSVKGRFTISRDNAKNTVSLQLTRLKPEDTAVYYCNRGYRWRRYENYYWGQVTQVTVSS
polyreactivity (PSR sort gate): high polyreactivity

QVQLVESGGGLVQAGGSLRLSCAASGFIFGTYAMGWYRQAPGKERELVAAISQSGGRTYYADSVKGRFTISRDNAKNTVYLQMNSLKPEDTAVYYCAAYRYVRYDYWGQGTQVTVSS
polyreactivity (PSR sort gate): high polyreactivity

QVQLVESGGGLVQAGGSLRLSCAASGFIFGVYAMGWYRQAPGKERELVAAISRSGGSTYYADSVKGRFTISRDNAKNTVYLQMNSLKPEDTAVYYCAVRGSWYSEHNYWGQGTQVTVSS
polyreactivity (PSR sort gate): high polyreactivity

QVQLVESGGGLVQAGGSLRLSCAASGFIFGYNAMGWYRQAPGKERELLAAITWIGGTTYYADSVKGRFTISRDNAKNTVYLQMNSLNPEDTAVYYCARQRSYGRYSYSYVYEYWGQGTLVTVSS
polyreactivity (PSR sort gate): high polyreactivity

QVQLVESGGGLVQAGGSLRLSCAASGFIFGYNAMGWYRQAPGKERELVAAISYSGVSTYYADSVKGRFTISRDNAKNTVYLQMNSLKPEDTAVYYCAARPIGYKPRGEYDYWGQGTQVTVSS
polyreactivity (PSR sort gate): high polyreactivity

QVQLVESGGGLVQAGGSLRLSCAASGFIFGYNAMGWYRQAPGKERELVAAITSRGDRTYYADSVKGRFTISRDNAKNTVYLQMNSLKPEDTAVYYCAKATRGYRSPYGSIGYYYWGQGTQVTVSS
polyreactivity (PSR sort gate): high polyreactivity

QVQLVESGGGLVQAGGSLRLSCAASGFIFGYNAMGWYRQAPGKERELVATISWSGGSTYYADSVKGRFTISRDNAKNTVYFQMNSLKPEDTAVYYCAAEGWERLGCVSWVTVDYWGQGTQVTVSS
polyreactivity (PSR sort gate): low polyreactivity

QVQLVESGGGLVQAGGSLRLSCAASGFIFGYYAMGWYRQAPGKERELVAAISKSGGRTRYADSVKGRFTISRDNAKNTVYLQMNSLKPEDTAVYYCATYDPARSTQGYDYWGQGTQVTVSS
polyreactivity (PSR sort gate): high polyreactivity

QVQLVESGGGLVQAGGSLRLSCAASGFIFGYYAMGWYRQAPGKERELVAVISRGGGSTHYADSVKGRFTISRDNAKNTVYLQMNSLKPEDTAVYYCAAQLGRRSATYYYWGQGTQVTVSS
polyreactivity (PSR sort gate): high polyreactivity

QVQLVESGGGLVQAGGSLRLSCAASGFIFGYYTMGWYRQAPGKERELVAAISSRGGSTYYADSVKGRFTISRDNAKNTVYLQMNSLKPEDTAVYYCAKRSTYTGSWWERGYWGQGTQVTVSS
polyreactivity (PSR sort gate): high polyreactivity

QVQLVESGGGLVQAGGSLRLSCAASGFIFGYYVMGWYRQAPGKERELVAAISGSGGRTYYADSVKGRFTISRDNAKNNVYLQMNSLKPEDTAVYYCNAVAFYRDYNYWGQGTQVTVSS
polyreactivity (PSR sort gate): high polyreactivity

QVQLVESGGGLVQAGGSLRLSCAASGFIFHGYTMGWYRQAPGKERELVAGISFTGGSTYYADSVKGRFTISRDNAKNTVYLQMNSLKPEDTAVYYCAATYSSYWARYYYWGQGTQVTVSS
polyreactivity (PSR sort gate): high polyreactivity

QVQLVESGGGLVQAGGSLRLSCAASGFIFHKYAMGWYRQAPGKERELVARITGSGASTFYADSVKGRFTISRDNAKNTVYLQMNSLKPEDTAVYYCAATIGSLLKYNRHRYYYWGQGTQVTVSS
polyreactivity (PSR sort gate): high polyreactivity

QVQLVESGGGLVQAGGSLRLSCAASGFIFHNYAMGWSRQAPGKERELVAAISWSGSRTYYADSVKGRFTISRDNAKNTVYLQMNSLKPEDTAVYYCNAPGSPVVQQPGYYWGQGTQVTVSS
polyreactivity (PSR sort gate): low polyreactivity

QVQLVESGGGLVQAGGSLRLSCAASGFIFHRYAMGGYRQAPGKERELVASITRSGGSTYYADSVKGRFTISRDNAKNTVYLQMNSLKPEDTAVYYCAAQLPSYYKYPRHDYWGQGTQVTVSS
polyreactivity (PSR sort gate): high polyreactivity

QVQLVESGGGLVQAGGSLRLSCAASGFIFHRYAMGWYRQAPGKERELVAAISRRGGSTYYADSVKGRFTISRDNAKNTVYLQMNSLKPEDTAVYYCARTVGDRTLLESDSWGQGTQVTVSS
polyreactivity (PSR sort gate): high polyreactivity

QVQLVESGGGLVQAGGSLRLSCAASGFIFHVYAMGWYRQAPGKERELVAAISGTGGSTYYADSVKGRFTISRDTALNTVSLQMNSLKPEDTAVYYYKAERSGNGYCGQGTQVTVSS
polyreactivity (PSR sort gate): high polyreactivity

QVQLVESGGGLVQAGGSLRLSCAASGFIFHYNAMGWYRPAPGKERELVAAITSGDSTDYADSVKGRFTISRDNAKNTVYLQMNSLKREDTAVYYCAAAEGYLSKYENDYWGQGTQVTVSS
polyreactivity (PSR sort gate): low polyreactivity

QVQLVESGGGLVQAGGSLRLSCAASGFIFIAYAMGWYRQAPGKERELVAAISKSGTRTYYADSVKGRFTISRDNAKNTVYLQMNSLKPEDTAVYYCATYSTYNKGTHGDYWGQGTQVTVSS
polyreactivity (PSR sort gate): high polyreactivity

QVQLVESGGGLVQAGGSLRLSCAASGFIFIINAMGWYRQAPGKEREFVAAITGSGGSTYYADSVKGRFTISRDNAKNTVYLQMNSLKPEDTAVYYCAKVGPYYSGKVYGRTYYSRYGYWGQGTQVTVSS
polyreactivity (PSR sort gate): low polyreactivity

QVQLVESGGGLVQAGGSLRLSCAASGFIFIRYAMGWYIQAPGKERELVASSTGRGGSTYYADSVKVRFTISRDNAKNTVYLQMNSLKPEDTAVYYCAAYYRYPTGWRWGGYYLYDYWGQGTQVTVSS
polyreactivity (PSR sort gate): high polyreactivity

QVQLVESGGGLVQAGGSLRLSCAASGFIFKANAMGWYRQAPGKERELVASITFGGDSTYYADSVKGRFTISRDNAKNTVYLQMNSLKPEDTAVYYCNTRRRSYRTYYYWGQGTQVTVLS
polyreactivity (PSR sort gate): low polyreactivity

QVQLVESGGGLVQAGGSLRLSCAASGFIFKHYAMGWYRQAPGKERELVAAISRSTGRTNYADSVKGRFTISRDNAKNTDYLQMNSLKPEDTAVYYCAAYRYLRYDYWGQGTQVTVSS
polyreactivity (PSR sort gate): high polyreactivity

QVQLVESGGGLVQAGGSLRLSCAASGFIFKNYAMGWYRQAPGKERELVAAITSSGGNTYYADSVKGRFTISRDNAKNTVYLQMNSLKPEDTAVYYCNARFRTLYWGQGTQVTVSS
polyreactivity (PSR sort gate): high polyreactivity

QVQLVESGGGLVQAGGSLRLSCAASGFIFKRNAMGWYRQATGNERELVAAITKSGVNTYYADSVKGRFTISRDNAKNTVYLQMTSLKPEDTAVYYCAKTLTYGFRRYDYWGQGTQVTVSS
polyreactivity (PSR sort gate): high polyreactivity

QVQLVESGGGLVQAGGSLRLSCAASGFIFKRYAMGWNRQAPGKVRELVAAITSRGGSTYYADSVKGRFTISRDNAKNTVYLQMNSLKPEDTAVYYCNAGTSAGSYDYWGQGTQVTVSS
polyreactivity (PSR sort gate): high polyreactivity

QVQLVESGGGLVQAGGSLRLSCAASGFIFKRYAMGWYRQAPGKERELVATISNSGGRTYYADSVKWRFTISRDNAKNTVYLQMNSLKPEDTAVYYCAALPFWWGGYWGQGTQVTVSS
polyreactivity (PSR sort gate): high polyreactivity

From the nanobody polyreactivity screen of Harvey et al. (2022)
